Source: paper PMC2746449

Columns and labels:
Flag-Aub WT = biological target: T1, Flag-Aub WT (Drosophila melanogaster, UniProt O76922 1-866); test: UV crosslinking
T1 sequence: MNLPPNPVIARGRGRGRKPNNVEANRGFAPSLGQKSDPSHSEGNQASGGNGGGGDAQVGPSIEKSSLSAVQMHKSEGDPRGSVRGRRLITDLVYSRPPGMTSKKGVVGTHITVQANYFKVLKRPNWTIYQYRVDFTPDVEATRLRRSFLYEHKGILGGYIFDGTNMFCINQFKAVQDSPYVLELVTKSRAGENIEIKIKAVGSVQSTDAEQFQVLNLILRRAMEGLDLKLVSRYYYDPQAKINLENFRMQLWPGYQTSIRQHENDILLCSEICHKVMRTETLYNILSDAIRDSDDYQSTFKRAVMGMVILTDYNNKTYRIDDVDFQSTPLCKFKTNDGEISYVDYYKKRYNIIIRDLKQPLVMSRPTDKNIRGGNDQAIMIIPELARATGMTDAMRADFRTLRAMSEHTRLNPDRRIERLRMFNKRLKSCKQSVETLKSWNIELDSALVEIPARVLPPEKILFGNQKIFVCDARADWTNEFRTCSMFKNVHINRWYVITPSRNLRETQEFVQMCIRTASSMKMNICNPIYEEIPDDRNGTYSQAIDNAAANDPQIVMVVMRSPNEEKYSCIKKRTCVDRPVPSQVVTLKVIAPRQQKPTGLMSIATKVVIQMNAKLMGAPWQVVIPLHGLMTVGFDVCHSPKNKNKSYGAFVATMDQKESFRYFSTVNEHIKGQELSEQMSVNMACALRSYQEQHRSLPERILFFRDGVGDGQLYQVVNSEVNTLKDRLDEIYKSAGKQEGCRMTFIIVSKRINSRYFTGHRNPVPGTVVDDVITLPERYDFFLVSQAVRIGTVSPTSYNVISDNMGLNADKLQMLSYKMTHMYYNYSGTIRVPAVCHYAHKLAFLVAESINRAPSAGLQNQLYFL

Flag-Aub mutant (M) = biological target: T2, Flag-Aub mutant (M) (Drosophila melanogaster, UniProt O76922 1-866, R11K;R13K;R15K;R17K); test: UV crosslinking
T2 sequence: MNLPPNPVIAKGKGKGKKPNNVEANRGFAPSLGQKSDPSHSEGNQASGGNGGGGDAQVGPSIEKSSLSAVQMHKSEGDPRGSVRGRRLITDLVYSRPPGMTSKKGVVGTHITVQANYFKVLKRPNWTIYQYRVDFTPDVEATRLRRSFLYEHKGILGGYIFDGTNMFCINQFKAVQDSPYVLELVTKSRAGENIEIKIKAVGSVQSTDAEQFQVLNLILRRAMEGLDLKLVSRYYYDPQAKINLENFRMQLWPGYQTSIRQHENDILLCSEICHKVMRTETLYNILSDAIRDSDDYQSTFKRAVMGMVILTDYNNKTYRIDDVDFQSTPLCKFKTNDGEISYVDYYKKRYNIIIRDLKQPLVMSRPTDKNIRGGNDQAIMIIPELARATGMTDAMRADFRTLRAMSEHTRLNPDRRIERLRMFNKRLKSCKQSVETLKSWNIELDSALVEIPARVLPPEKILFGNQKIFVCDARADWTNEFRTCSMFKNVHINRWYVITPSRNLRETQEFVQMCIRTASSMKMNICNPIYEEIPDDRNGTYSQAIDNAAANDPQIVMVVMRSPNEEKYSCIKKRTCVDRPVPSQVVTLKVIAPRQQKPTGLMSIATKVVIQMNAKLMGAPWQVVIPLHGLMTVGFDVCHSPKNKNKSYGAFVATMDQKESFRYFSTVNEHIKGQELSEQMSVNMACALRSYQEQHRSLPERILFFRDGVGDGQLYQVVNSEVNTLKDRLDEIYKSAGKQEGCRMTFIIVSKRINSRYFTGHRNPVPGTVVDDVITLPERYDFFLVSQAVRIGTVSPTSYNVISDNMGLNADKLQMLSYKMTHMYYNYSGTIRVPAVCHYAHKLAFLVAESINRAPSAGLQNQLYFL

B1: synthetic piRNA with s4U at position 1 (ssRNA)
RNA: UGACAUGAACACAGGUGCUCAGAUAGCUUU
modifications: 4-thio-uridine (s4U) at position 1
**Q.** Does B1 bind (Flag-Aub WT)?
**A.** Result: binds

**Q.** Does B1 bind (Flag-Aub mutant (M))?
**A.** Result: binds
